Test results published in US20120064110A1.
*: point of attachment. NH(propargyl) = C#CCN*

Test: Circular dichroism measurement of peptide secondary structure
Type: physicochemical
Conditions: aqueous environments; 208 nm and 222 nm signal; FIG. 1 and FIG. 2

Row | Substance | α-helical structure content by circular dichroism
1 | Acetyl-AADAADKEAAQKAIDAATNAVNAAIEAANAAGG-NHCH2CCH (Ac-AADAADKEAAQKAIDAATNAVNAAIEAANAAGG-{NH(propargyl)}; SMILES C#CCNC(=O)CNC(=O)CNC(=O)[C@H](C)NC(=O)[C@H](C)NC(=O)[C@H](CC(N)=O)NC(=O)[C@H](C)NC(=O)[C@H](C)NC(=O)[C@H](CCC(=O)O)NC(=O)[C@@H](NC(=O)[C@H](C)NC(=O)[C@H](C)NC(=O)[C@H](CC(N)=O)NC(=O)[C@@H](NC(=O)[C@H](C)NC(=O)[C@H](CC(N)=O)NC(=O)[C@@H](NC(=O)[C@H](C)NC(=O)[C@H](C)NC(=O)[C@H](CC(=O)O)NC(=O)[C@@H](NC(=O)[C@H](C)NC(=O)[C@H](CCCCN)NC(=O)[C@H](CCC(N)=O)NC(=O)[C@H](C)NC(=O)[C@H](C)NC(=O)[C@H](CCC(=O)O)NC(=O)[C@H](CCCCN)NC(=O)[C@H](CC(=O)O)NC(=O)[C@H](C)NC(=O)[C@H](C)NC(=O)[C@H](CC(=O)O)NC(=O)[C@H](C)NC(=O)[C@H](C)NC(C)=O)[C@@H](C)CC)[C@@H](C)O)C(C)C)[C@@H](C)CC) [HA54.1] | More significant improvement of the α-helical content
2 | Acetyl-AADAADKEAAQKALDAATNALNAAIEAANAAGG-NHCH2CCH (Ac-AADAADKEAAQKALDAATNALNAAIEAANAAGG-{NH(propargyl)}; SMILES C#CCNC(=O)CNC(=O)CNC(=O)[C@H](C)NC(=O)[C@H](C)NC(=O)[C@H](CC(N)=O)NC(=O)[C@H](C)NC(=O)[C@H](C)NC(=O)[C@H](CCC(=O)O)NC(=O)[C@@H](NC(=O)[C@H](C)NC(=O)[C@H](C)NC(=O)[C@H](CC(N)=O)NC(=O)[C@H](CC(C)C)NC(=O)[C@H](C)NC(=O)[C@H](CC(N)=O)NC(=O)[C@@H](NC(=O)[C@H](C)NC(=O)[C@H](C)NC(=O)[C@H](CC(=O)O)NC(=O)[C@H](CC(C)C)NC(=O)[C@H](C)NC(=O)[C@H](CCCCN)NC(=O)[C@H](CCC(N)=O)NC(=O)[C@H](C)NC(=O)[C@H](C)NC(=O)[C@H](CCC(=O)O)NC(=O)[C@H](CCCCN)NC(=O)[C@H](CC(=O)O)NC(=O)[C@H](C)NC(=O)[C@H](C)NC(=O)[C@H](CC(=O)O)NC(=O)[C@H](C)NC(=O)[C@H](C)NC(C)=O)[C@@H](C)O)[C@@H](C)CC) [SEQHAS] | More significant improvement of the α-helical content
3 | Acetyl-AADAADKEAKQKAIDAATNAVNSAIEAANKAGG-NHCH2CCH (Ac-AADAADKEAKQKAIDAATNAVNSAIEAANKAGG-{NH(propargyl)}; SMILES C#CCNC(=O)CNC(=O)CNC(=O)[C@H](C)NC(=O)[C@H](CCCCN)NC(=O)[C@H](CC(N)=O)NC(=O)[C@H](C)NC(=O)[C@H](C)NC(=O)[C@H](CCC(=O)O)NC(=O)[C@@H](NC(=O)[C@H](C)NC(=O)[C@H](CO)NC(=O)[C@H](CC(N)=O)NC(=O)[C@@H](NC(=O)[C@H](C)NC(=O)[C@H](CC(N)=O)NC(=O)[C@@H](NC(=O)[C@H](C)NC(=O)[C@H](C)NC(=O)[C@H](CC(=O)O)NC(=O)[C@@H](NC(=O)[C@H](C)NC(=O)[C@H](CCCCN)NC(=O)[C@H](CCC(N)=O)NC(=O)[C@H](CCCCN)NC(=O)[C@H](C)NC(=O)[C@H](CCC(=O)O)NC(=O)[C@H](CCCCN)NC(=O)[C@H](CC(=O)O)NC(=O)[C@H](C)NC(=O)[C@H](C)NC(=O)[C@H](CC(=O)O)NC(=O)[C@H](C)NC(=O)[C@H](C)NC(C)=O)[C@@H](C)CC)[C@@H](C)O)C(C)C)[C@@H](C)CC) [HA54.4] | More significant improvement of the α-helical content
4 | Acetyl-Ala-Ala-Asp-Lys-Ala-Ser-Thr-Gln-Ala-Ala-Ile-Asp-Gly-Ala-Thr-Asn-Ala-Val-Asn-Ser-Ala-Ile-Glu-Ala-Gly-Gly-NHCH2CCH (Ac-AADKASTQAAIDGATNAVNSAIEAGG-{NH(propargyl)}; SMILES C#CCNC(=O)CNC(=O)CNC(=O)[C@H](C)NC(=O)[C@H](CCC(=O)O)NC(=O)[C@@H](NC(=O)[C@H](C)NC(=O)[C@H](CO)NC(=O)[C@H](CC(N)=O)NC(=O)[C@@H](NC(=O)[C@H](C)NC(=O)[C@H](CC(N)=O)NC(=O)[C@@H](NC(=O)[C@H](C)NC(=O)CNC(=O)[C@H](CC(=O)O)NC(=O)[C@@H](NC(=O)[C@H](C)NC(=O)[C@H](C)NC(=O)[C@H](CCC(N)=O)NC(=O)[C@@H](NC(=O)[C@H](CO)NC(=O)[C@H](C)NC(=O)[C@H](CCCCN)NC(=O)[C@H](CC(=O)O)NC(=O)[C@H](C)NC(=O)[C@H](C)NC(C)=O)[C@@H](C)O)[C@@H](C)CC)[C@@H](C)O)C(C)C)[C@@H](C)CC) [A2] | less optimal for forming α-helical structures in aqueous environments
